# Reference: patent publication US20210388081A1 (Memorial Sloan Kettering, published 2021)
# T1: FcRL2, overexpressed on 3T3 cells (UniProt Q96LA5 20-508, limits assumed)
# T1 construct: whole, on cells
# T1 sequence (looked up): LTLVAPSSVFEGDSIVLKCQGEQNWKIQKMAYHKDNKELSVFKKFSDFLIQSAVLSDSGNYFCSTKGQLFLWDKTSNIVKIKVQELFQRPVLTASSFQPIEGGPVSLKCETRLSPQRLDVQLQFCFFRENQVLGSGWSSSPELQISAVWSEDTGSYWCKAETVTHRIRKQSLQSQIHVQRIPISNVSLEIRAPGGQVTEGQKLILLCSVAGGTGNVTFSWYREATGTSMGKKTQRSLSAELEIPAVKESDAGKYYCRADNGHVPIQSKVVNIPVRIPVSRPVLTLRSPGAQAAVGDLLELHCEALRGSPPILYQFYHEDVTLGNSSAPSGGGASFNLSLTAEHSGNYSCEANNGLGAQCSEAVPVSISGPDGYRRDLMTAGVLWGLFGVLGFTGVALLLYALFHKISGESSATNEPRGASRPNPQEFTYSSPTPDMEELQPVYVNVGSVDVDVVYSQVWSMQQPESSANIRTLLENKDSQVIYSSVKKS
# T2: FcRL4, overexpressed on 3T3 cells (UniProt Q96PJ5 20-515, limits assumed)
# T2 construct: whole, on cells
# T2 sequence (looked up): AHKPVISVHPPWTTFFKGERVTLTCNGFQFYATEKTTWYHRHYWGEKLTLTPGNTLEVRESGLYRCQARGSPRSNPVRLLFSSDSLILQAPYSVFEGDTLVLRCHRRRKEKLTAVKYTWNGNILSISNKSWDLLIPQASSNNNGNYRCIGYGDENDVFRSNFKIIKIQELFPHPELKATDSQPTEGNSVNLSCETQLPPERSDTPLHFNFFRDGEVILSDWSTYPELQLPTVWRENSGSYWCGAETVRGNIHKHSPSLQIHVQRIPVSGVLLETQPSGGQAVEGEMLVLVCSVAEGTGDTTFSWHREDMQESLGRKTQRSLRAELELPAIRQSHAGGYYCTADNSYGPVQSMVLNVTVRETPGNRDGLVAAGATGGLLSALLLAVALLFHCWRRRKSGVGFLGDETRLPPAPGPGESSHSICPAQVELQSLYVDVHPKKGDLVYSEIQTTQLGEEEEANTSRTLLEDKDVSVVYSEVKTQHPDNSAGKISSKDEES
# T3: FcRL6, overexpressed on 3T3 cells (UniProt Q6DN72 20-434, limits assumed)
# T3 construct: whole, on cells
# T3 sequence (looked up): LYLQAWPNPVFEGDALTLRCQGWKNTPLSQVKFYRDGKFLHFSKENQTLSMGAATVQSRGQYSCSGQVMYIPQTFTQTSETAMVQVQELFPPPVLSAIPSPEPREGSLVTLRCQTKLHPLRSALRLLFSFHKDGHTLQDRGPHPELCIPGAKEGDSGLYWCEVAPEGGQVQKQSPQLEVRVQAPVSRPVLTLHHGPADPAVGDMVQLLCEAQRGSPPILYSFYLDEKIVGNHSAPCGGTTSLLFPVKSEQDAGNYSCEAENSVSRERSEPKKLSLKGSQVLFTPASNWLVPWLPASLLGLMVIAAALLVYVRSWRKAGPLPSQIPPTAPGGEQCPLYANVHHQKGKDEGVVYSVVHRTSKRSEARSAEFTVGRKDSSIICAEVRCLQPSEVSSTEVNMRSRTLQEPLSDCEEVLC
# T4: Fc Receptor-like 5 (FcRL5), full length, overexpressed on 3T3 or Raji cells (human, UniProt Q96RD9 16-977)
# T4 construct: also called 3T3-FcRL5
# T4 sequence: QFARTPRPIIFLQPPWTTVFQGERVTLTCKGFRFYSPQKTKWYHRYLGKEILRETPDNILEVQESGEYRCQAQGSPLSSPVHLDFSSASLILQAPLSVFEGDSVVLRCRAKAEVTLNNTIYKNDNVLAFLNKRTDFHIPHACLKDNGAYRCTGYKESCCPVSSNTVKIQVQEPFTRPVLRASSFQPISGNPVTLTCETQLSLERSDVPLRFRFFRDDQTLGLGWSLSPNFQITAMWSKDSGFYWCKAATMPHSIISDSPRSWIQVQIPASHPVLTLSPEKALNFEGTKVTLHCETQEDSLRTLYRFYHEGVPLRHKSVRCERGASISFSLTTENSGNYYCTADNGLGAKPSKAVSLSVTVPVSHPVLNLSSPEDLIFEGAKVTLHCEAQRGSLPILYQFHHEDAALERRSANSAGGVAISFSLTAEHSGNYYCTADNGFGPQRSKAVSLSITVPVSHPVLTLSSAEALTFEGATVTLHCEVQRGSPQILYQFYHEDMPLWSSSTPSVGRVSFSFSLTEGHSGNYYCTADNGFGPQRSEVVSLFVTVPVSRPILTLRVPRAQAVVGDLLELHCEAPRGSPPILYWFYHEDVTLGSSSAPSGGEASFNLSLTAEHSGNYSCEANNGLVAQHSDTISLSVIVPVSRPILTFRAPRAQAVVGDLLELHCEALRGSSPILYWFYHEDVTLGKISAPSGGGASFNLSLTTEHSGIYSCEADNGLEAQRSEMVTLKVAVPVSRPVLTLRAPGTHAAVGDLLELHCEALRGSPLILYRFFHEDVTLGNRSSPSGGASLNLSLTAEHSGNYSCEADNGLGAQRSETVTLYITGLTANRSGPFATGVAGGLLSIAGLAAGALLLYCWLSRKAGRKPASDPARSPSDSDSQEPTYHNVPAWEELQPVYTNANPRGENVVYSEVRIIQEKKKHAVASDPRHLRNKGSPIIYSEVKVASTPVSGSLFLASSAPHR
# Columns and labels:
# [1] = molecular target: SLAMF9 protein (UniProt Q96A28 19-236, limits assumed); test: phage clone on SLAMF9 protein
# Chain of SLAMF9 protein (Q96A28 19-236 limits assumed): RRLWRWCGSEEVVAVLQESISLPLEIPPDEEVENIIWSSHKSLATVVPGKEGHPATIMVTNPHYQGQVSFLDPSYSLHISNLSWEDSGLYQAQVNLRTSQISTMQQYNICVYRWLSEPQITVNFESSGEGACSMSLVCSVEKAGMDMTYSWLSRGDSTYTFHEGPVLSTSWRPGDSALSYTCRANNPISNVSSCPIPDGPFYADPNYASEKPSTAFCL
# [2] = molecular target: T1, FcRL2, overexpressed on 3T3 cells; test: phage clone on 3T3-FcRL2 cells
# [3] = molecular target: T2, FcRL4, overexpressed on 3T3 cells; test: phage clone on 3T3-FcRL4 cells
# [4] = molecular target: T3, FcRL6, overexpressed on 3T3 cells; test: phage clone on 3T3-FcRL6 cells
# [5] = molecular target: T4, Fc Receptor-like 5 (FcRL5), full …; test: phage clone screening on cells
# Outline: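 scFv phage clones were incubated with live 3T3 cells overexpressing full-length FcRL5, then detected with mouse anti-M13 mAb and PE-anti-mouse Ig by flow cytometry. 3T3 cells expressing FcRL1, 2, 3, 4 or 6 served as negative-control targets.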
Binder,binding result [1],binding result [2],binding result [3],binding result [4],binding result [5]
"ET200-124 (scFv, screened as phage clone; entry is VL-linker-VH-His tag-HA tag) scFv: SYVLTQPPSVSVAPGKTARISCGGNDIGSKSVFWYQQRPGQAPVLVVYDDSDRPSGLPERFSGFNSGNTATLTISRVEAGDEADYYCQVWDSSSDHYVFGTGTKVTVLGSRGGGGSGGGGSGGGGSLEMAQVQLVESGGGLVQPGRSLRLSCAASGFTFDDYAMHWVRQAPGKGLEWVSGISWNSGSIGYADSVKGRFTISRDNAKNSLYLQMNSLRAEDTALYYCAKDITYGSGSYGAFDIWGQGTMVTVSSTSGQAGQHHHHHHGAYPYDVPDYAS",no binding,no binding,no binding,no binding,binds
"ET200-010 (scFv, screened as phage clone; entry is VL-linker-VH-His tag-HA tag) scFv: QSALTQPASVSGSPGQSITISCTGTSSDVGGYNSVSWYQQHPGKAPRLMIYDVSNRPSGVSNRFSGSKSGNTASLTISGLQAEDEADYYCSSYTSSSTPLVFGTGTKVTVLGSRGGGGSGGGGSGGGGSLEMAQVQLVQSGAEVKKPGASVKVSCKASGYTFTSYGISWVRQAPGQGLEWMGWISAYNGNTNYAQKLQGRVTMTTDTSTSTAYMELRSLRSDDTAVYYCARGAVAYHDWGQGTLVTVSSTSGQAGQHHHHHHGAYPYDVPDYAS",no binding,no binding,no binding,no binding,binds
"ET200-009 (scFv, screened as phage clone; entry is VL-linker-VH-His tag-HA tag) scFv: QSVLTQPPSASGTPGQTVTISCSGSNSNIGSNYVYWYQQLPGTAPKLLIYRNNQRPSGVPDRFSGSKSGTSASLAISGLRSEDEADYYCAAWDDSLSAYVFGTGTKVTVLGSRGGGGSGGGGSGGGGSLEMAQVQLVQSGAEVKKPGASVKVSCKASGYTFTSYGISWVRQAPGQGLEWMGWISAYNGNTNYAQKLQGRVTMTTDTSTSTAYMELRSLRSDDTAVYYCARSSGNMVSWKDMWGQGTLVTVSSTSGQAGQHHHHHHGAYPYDVPDYAS",no binding,no binding,no binding,no binding,binds
"ET200-005 (scFv, screened as phage clone; entry is VL-linker-VH-His tag-HA tag) scFv: QPVLTQPPSVSVVPGKTARITCGGKNIGSKSVHWYQQKPGQAPVVVIHYDSDRPSGIPERFSGSNSGNTATLTISRVEAGDEADYYCQVWDSSSDHPYVFGTGTKVTVLGSRGGGGSGGGGSGGGGSLEMAQVQLVQSGAEVKKPGASVKVSCKASGYTFTNYGISWVRQAPGQGLEWMGWISAYNGNTNYAHKLQGRVTMTTDTSTSTANMELRSLRPDDTAVYYCARSYFGSHDYWGQGTLVTVSSTSGQAGQHHHHHHGAYPYDVPDYAS",no binding,no binding,no binding,no binding,binds
"ET200-125 (scFv, screened as phage clone; entry is VL-linker-VH-His tag-HA tag) scFv: NFMLTQPHAVSESPGKTVTISCTRSSGSIASNYVQWYQQRPGSSPRTVIYEDNQRPSGVPGRFSGSIDSSSNSASLTISGLKTEDEADYYCQSYDSTSVLFGGGTKLTVLGSRGGGGSGGGGSGGGGSLEMAEVQLVQSGAEVKKPGSSVKVSCKASGGTFSSNSLSWVRQAPGQGLEWMGRIFPILGITNYAQKFQGRVTITADKSTSTAYMELSSLRSEDTAVYYCARGNYQWYDAFDIWGQGTMVTVSSTSGQAGQHHHHHHGAYPYDVPDYAS",no binding,no binding,no binding,no binding,binds
